From US20260115290A1 come the findings set out here.

The target in this experiment is HLA-DR on K562-CD19-HLA-DR cells (alpha chain UniProtKB-P01903, beta chain UniProtKB-P04229) (human) (UniProt P01903). As to the kind of experiment: cell-based or functional assay.

The substance “anti-HLA-DR iCAR (FLAG tag, scFv of antibody 1D09C3, PD-1 hinge, transmembrane and intracellular domains) (from UniProt Q15116 145-288) (receptor)” came in with a CD107a+ population, single against dual CAR-NK cells, K562-CD19-HLA-DR target cells of 2 to 3 fold and an IFN-γ production (ELISA), dual against single CAR-NK cells with K562-CD19-HLA-DR cells of 70 % reduction.
